Positions count from the first letter of the chain named.

From US20150299312A1 (TECHNISCHE UNIVERSIT T DRESDEN, published 2015) come the findings set out here.

This assay deals with T1, P-selectin glycoprotein ligand 1 (PSGL-1) with the O-bound glycan structure 6-sulfo N-acetyl lactosamine … (human, UniProt Q14242 42-412).
T1 construct: whole, on cells; also called slan
T1 sequence (looked up): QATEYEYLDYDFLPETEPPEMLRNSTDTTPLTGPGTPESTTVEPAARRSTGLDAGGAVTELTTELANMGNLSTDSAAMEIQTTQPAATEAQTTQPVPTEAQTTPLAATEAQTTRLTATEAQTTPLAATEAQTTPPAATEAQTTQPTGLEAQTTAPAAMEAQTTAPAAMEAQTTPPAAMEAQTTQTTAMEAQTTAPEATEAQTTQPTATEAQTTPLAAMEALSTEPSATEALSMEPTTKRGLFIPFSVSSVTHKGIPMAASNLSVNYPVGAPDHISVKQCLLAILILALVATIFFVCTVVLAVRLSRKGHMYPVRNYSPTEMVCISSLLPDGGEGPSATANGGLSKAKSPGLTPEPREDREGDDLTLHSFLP
In words: affinity to slan-DCs; method not stated.

B1: monoclonal IgM antibody MB4 (antibody, V domains shown)
VH: EVKLQESGPGLVQPSQSLSITCTVSGFSLTTYGVHWIRQSPGKGLEWLGVIWSGGGTDFNVAFMSRLSINKDNSKSQIFFKMNSLQANDTAIYYCARRTTNDGNYAFAYWGQGTLVTVS
VL: DIVMTQSPLSLPVSLGDQASISCRSSQNILHSDGSTYLEWYLQKPGQSPKLLIYKVSNRFSGVPDRFSGSGSGTDFTLKISRVEAEDLGVYYCFQGSHVPWTFGGGTKLEIKR
notes: also called anti-slan antibody MB4
Consider B1, for which the Kd was 0.4 pM and the “fold higher affinity than DD2 or M-DC8” value was approximately 25 fold.

B2: monoclonal IgM antibody MB6 (antibody, V domains shown)
VH: B1 VH with Q5E, E6Q, P14L, M64I, I78V
VL: B1 VL with S35N
notes: also called anti-slan antibody MB6
For the molecule B2, binding was characterised by a dissociation constant (Kd) of 0.4 pM and the “fold higher affinity than DD2 or M-DC8” value was approximately 25 fold.

One may read the Kd as the concentration at which binding is half-saturated. Low values mean a tighter complex, high ones a looser complex.
